# Measurements: IntAct's records for PubMed 18045938
# B1: Envelope glycoprotein B (Human herpesvirus 8), F5HB81 (parent)
# chain: MTPRSRLATLGTVILLVCFCAGAAHSRGDTFQTSSSPTPPGSSSKAPTKPGEEASGPKSVDFYQFRVCSASITGELFRFNLEQTCPDTKDKYHQEGILLVYKKNIVPHIFKVRRYRKIATSVTVYRGLTESAITNKYELPRPVPLYEISHMDSTYQCFSSMKVNVNGVENTFTDRDDVNTTVFLQPVEGLTDNIQRYFSQPVIYAEPGWFPGIYRVRTTVNCEIVDMIARSAEPYNYFVTSLGDTVEVSPFCYNESSCSTTPSNKNGLSVQVVLNHTVVTYSDRGTSPTPQNRIFVETGAYTLSWASESKTTAVCPLALWKTFPRSIQTTHEDSFHFVANEITATFTAPLTPVANFTDTYSCLTSDINTTLNASKAKLASTHVPNGTVQYFHTTGGLYLVWQPMSAINLTHAQGDSGNPTSSPPPSASPMTTSASRRKRRSASTAAAGGGGSTDNLSYTQLQFAYDKLRDGINQVLEELSRAWCREQVRDNLMWYELSKINPTSVMTAIYGRPVSAKFVGDAISVTECINVDQSSVNIHKSLRTNSKDVCYARPLVTFKFLNSSNLFTGQLGARNEIILTNNQVETCKDTCEHYFITRNETLVYKDYAYLRTINTTDISTLNTFIALNLSFIQNIDFKAIELYSSAEKRLASSVFDLETMFREYNYYTHRLAGLREDLDNTIDMNKERFVRDLSEIVADLGGIGKTVVNVASSVVTLCGSLVTGFINFIKHPLGGMLMIIIVIAIILIIFMLSRRTNTIAQAPVKMIYPDVDRRAPPSGGAPTREEIKNILLGMHQLQQEERQKADDLKKSTPSVFQRTANGLRQRLRGYKPLTQSLDISPETGE
# Variants of: B1
# Conditions: with itb3_human ITGB3, P05106
# Sequence of itb3_human ITGB3, P05106 (P05106 whole entry): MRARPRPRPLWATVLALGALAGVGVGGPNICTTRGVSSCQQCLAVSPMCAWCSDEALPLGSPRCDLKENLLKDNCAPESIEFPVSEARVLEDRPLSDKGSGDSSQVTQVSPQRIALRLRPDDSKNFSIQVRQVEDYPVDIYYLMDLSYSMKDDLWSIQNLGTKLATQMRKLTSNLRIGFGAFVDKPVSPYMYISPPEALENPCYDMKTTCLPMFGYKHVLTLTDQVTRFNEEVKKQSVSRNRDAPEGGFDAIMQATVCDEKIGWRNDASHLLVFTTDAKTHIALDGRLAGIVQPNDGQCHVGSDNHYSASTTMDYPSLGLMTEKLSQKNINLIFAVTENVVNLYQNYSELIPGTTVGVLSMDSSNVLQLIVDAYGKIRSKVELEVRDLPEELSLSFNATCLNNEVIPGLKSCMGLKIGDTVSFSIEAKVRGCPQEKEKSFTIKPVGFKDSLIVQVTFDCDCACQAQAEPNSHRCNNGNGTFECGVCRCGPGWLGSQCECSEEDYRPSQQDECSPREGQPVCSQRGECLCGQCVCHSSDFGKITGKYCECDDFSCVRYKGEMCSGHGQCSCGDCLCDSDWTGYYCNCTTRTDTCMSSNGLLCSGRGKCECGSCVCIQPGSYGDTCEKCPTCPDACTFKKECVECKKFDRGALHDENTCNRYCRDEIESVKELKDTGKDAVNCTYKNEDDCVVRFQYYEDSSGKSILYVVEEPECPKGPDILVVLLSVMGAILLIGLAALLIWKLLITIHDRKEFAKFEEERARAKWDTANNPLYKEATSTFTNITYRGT
row,Variant,effect of a mutation on the interaction
1,D29E,disrupting interaction
